According to article PMC11193720:

Key:
[1] = biological target: VZV glycoprotein C construct gC Y419-S523 (varicella zoster virus (Dumas strain)); experiment: SPR
[2] = biological target: VZV glycoprotein C gC_(S147-V531) (varicella zoster virus, Dumas strain)
[3] = biological target: VZV glycoprotein C gC_(S147-V531) (varicella zoster virus, Dumas strain); experiment: SPR + other: grating-coupled interferometry (GCI)
[4] = biological target: VZV glycoprotein C gC_(Y419-S523) (varicella zoster virus, Dumas strain); experiment: SPR + other: grating-coupled interferometry (GCI)
[5] = biological target: VZV glycoprotein C gC_(Y322-S523) (varicella zoster virus, Dumas strain); experiment: SPR + other: grating-coupled interferometry (GCI)
Sequence of VZV glycoprotein C gC_(Y322-S523) (varicella zoster virus, Dumas strain) (P09256 353-554 limits assumed): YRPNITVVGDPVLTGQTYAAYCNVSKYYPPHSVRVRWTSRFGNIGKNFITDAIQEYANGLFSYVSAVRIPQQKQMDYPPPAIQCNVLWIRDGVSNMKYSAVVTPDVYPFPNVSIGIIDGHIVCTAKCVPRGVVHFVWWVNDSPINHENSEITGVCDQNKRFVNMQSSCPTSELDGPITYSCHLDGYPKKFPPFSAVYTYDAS

Sequence of VZV glycoprotein C construct gC Y419-S523 (varicella zoster virus (Dumas strain)) (P09256 450-554 limits assumed): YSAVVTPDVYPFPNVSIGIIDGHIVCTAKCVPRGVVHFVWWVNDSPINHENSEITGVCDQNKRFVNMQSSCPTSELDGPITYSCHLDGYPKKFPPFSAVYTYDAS
Sequence of VZV glycoprotein C gC_(S147-V531) (varicella zoster virus, Dumas strain) (P09256 178-562 limits assumed): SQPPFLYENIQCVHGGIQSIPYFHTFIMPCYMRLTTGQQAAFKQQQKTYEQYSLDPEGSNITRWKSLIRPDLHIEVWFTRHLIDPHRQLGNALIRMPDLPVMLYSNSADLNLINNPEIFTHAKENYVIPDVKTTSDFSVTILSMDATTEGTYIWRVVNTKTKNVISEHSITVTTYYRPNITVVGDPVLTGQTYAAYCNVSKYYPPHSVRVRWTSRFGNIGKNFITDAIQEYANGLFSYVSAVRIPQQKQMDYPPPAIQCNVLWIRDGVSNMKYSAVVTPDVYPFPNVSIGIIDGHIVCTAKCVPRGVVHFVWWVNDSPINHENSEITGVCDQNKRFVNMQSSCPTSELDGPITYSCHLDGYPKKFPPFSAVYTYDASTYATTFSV
Sequence of VZV glycoprotein C gC_(Y419-S523) (varicella zoster virus, Dumas strain) (P09256 450-554 limits assumed): as the sequence (P09256 450-554 limits assumed) above

For “interferon-gamma (IFN-γ) (from UniProt P01579 24-161) (ligand)”, which Kd [1] is on record?
Its Kd is 18 nM.

What about the koff [1] of the same substance?
Its koff is 0.0244 s⁻¹.

And the kon [1]?
Its kon is 1.35e+06 M⁻¹ s⁻¹.

What about the adhesion of Jurkat cells to HaCaT cells stimulated with 5 ng/mL IFN-γ and 300 nM gC construct, fold against IFN-γ alone [2] of the same substance?
The adhesion of Jurkat cells to HaCaT cells stimulated with 5 ng/mL IFN-γ and 300 nM gC construct, fold against IFN-γ alone was 2.7 fold.

What about the off-rate of the transient interaction (Kd1), heterogenous ligand fit [3] of the same substance?
Its off-rate of the transient interaction (Kd1), heterogenous ligand fit is 0.04 s⁻¹.

And the koff [4]?
Its koff is 0.02 s⁻¹.

And the off-rate of the transient interaction (Kd1), heterogenous ligand fit [5]?
The off-rate of the transient interaction (Kd1), heterogenous ligand fit was 0.04 s⁻¹.
